Reference: US20110166329A1

Experiments:
[1] = molecular target: human serum amyloid P component (SAP) (human) (UniProt P02743); assay: Biacore; isolated pure SAP alone immobilised on the chip
[2] = molecular target: human serum amyloid P component (SAP) (human) (UniProt P02743); assay: IRMA; SAP alone covalently immobilised; in EDTA; radiolabelled sheep anti-mouse IgG; mean n=3
[3] = molecular target: human serum amyloid P component (SAP) (human) (UniProt P02743); assay: IRMA; SAP non-covalently immobilised; antibody at 1 µg/ml; radiolabelled sheep anti-mouse IgG2a
[4] = molecular target: human serum amyloid P component (SAP) (human) (UniProt P02743); assay: IRMA; SAP alone covalently immobilised; in calcium; radiolabelled sheep anti-mouse IgG; mean n=3
[5] = molecular target: human serum amyloid P component (SAP) (human) (UniProt P02743); assay: IRMA; SAP non-covalently immobilised; antibody at 10 µg/ml; radiolabelled sheep anti-mouse IgG2a
[6] = molecular target: human serum amyloid P component (SAP) (human) (UniProt P02743); assay: IRMA; SAP non-covalently immobilised; antibody at 0.1 µg/ml; radiolabelled sheep anti-mouse IgG2a
[7] = molecular target: human serum amyloid P component (SAP) (human) (UniProt P02743); assay: IRMA; SAP non-covalently immobilised; antibody at 100 µg/ml; radiolabelled sheep anti-mouse IgG2a
[8] = molecular target: human serum amyloid P component (SAP) (human) (UniProt P02743); assay: IRMA; SAP non-covalently immobilised; antibody at 0.01 µg/ml; radiolabelled sheep anti-mouse IgG2a
[9] = molecular target: human serum amyloid P component (SAP) (human) (UniProt P02743); assay: IRMA; SAP non-covalently immobilised; antibody at 0.001 µg/ml; radiolabelled sheep anti-mouse IgG2a
[10] = molecular target: human SAP complexed with CPHPC and covalently cross linked with BS3 (human) (UniProt P02743); assay: IRMA; SAP-CPHPC complex covalently immobilised; in EDTA; radiolabelled sheep anti-mouse IgG; mean n=3
[11] = molecular target: human SAP complexed with CPHPC and covalently cross linked with BS3 (human) (UniProt P02743); assay: IRMA; SAP-CPHPC complex covalently immobilised; in calcium; radiolabelled sheep anti-mouse IgG; mean n=3
[12] = molecular target: human serum amyloid P component (SAP) (human) (UniProt P02743); assay: IRMA; SAP non-covalently immobilised; antibody at 1 µg/ml; radiolabelled sheep polyvalent anti-mouse IgG
[13] = molecular target: human serum amyloid P component (SAP) (human) (UniProt P02743); assay: IRMA; SAP non-covalently immobilised; antibody at 10 µg/ml; radiolabelled sheep polyvalent anti-mouse IgG
[14] = molecular target: human serum amyloid P component (SAP) (human) (UniProt P02743); assay: IRMA; SAP non-covalently immobilised; antibody at 0.1 µg/ml; radiolabelled sheep polyvalent anti-mouse IgG
[15] = molecular target: human serum amyloid P component (SAP) (human) (UniProt P02743); assay: IRMA; SAP non-covalently immobilised; antibody at 100 µg/ml; radiolabelled sheep polyvalent anti-mouse IgG
[16] = molecular target: human serum amyloid P component (SAP) (human) (UniProt P02743); assay: IRMA; SAP non-covalently immobilised; antibody at 0.01 µg/ml; radiolabelled sheep polyvalent anti-mouse IgG
[17] = molecular target: human serum amyloid P component (SAP) (human) (UniProt P02743); assay: IRMA; SAP non-covalently immobilised; antibody at 0.001 µg/ml; radiolabelled sheep polyvalent anti-mouse IgG
[18] = molecular target: human serum amyloid P component (SAP) (human) (UniProt P02743); assay: IRMA; SAP alone captured on immobilised sheep polyclonal anti-human SAP; in calcium; radiolabelled sheep anti-mouse IgG; mean n=3
[19] = molecular target: human SAP complexed with CPHPC and covalently cross linked with BS3 (human) (UniProt P02743); assay: IRMA; SAP-CPHPC complex captured on immobilised sheep polyclonal anti-human SAP; in calcium; radiolabelled sheep anti-mouse IgG; mean n=3

Chain of human SAP complexed with CPHPC and covalently cross linked with BS3 (human) (P02743 20-223, one chain of several): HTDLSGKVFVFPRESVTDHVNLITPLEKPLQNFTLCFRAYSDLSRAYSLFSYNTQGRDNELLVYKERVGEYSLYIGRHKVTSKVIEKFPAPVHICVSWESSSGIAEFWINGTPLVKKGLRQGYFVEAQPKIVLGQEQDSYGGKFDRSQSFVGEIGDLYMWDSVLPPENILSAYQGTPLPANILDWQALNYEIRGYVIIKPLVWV
Chain of human serum amyloid P component (SAP) (human) (P02743 20-223): as the sequence (P02743 20-223, one chain of several) above

Substance: SAP-5 (antibody)
- koff [1]: 6e-05 s⁻¹
- kon [1]: 20000 M⁻¹ s⁻¹
- Activity bound (d.p.m.) [2]: 4050 d.p.m.
- Activity bound (d.p.m.) [3]: 1650 d.p.m.
- Activity bound (d.p.m.) [4]: 5580 d.p.m.
- Activity bound (d.p.m.) [5]: 1980 d.p.m.
- Activity bound (d.p.m.) [6]: 589 d.p.m.
- Activity bound (d.p.m.) [7]: 2200 d.p.m.
- Activity bound (d.p.m.) [8]: 222 d.p.m.
- Activity bound (d.p.m.) [9]: 94 d.p.m.
- Activity bound (d.p.m.) [10]: 5140 d.p.m.
- Activity bound (d.p.m.) [11]: 6160 d.p.m.
- Activity bound (d.p.m.) [12]: 12100 d.p.m.
- Activity bound (d.p.m.) [13]: 15400 d.p.m.
- Activity bound (d.p.m.) [14]: 4560 d.p.m.
- Activity bound (d.p.m.) [15]: 16200 d.p.m.
- Activity bound (d.p.m.) [16]: 902 d.p.m.
- Activity bound (d.p.m.) [17]: 195 d.p.m.
- Activity bound (d.p.m.) [18]: 9310 d.p.m.
- Activity bound (d.p.m.) [19]: 7120 d.p.m.
